Assay [1] concerns the target T1, HLA-A*02:01_… (HLA-PEPTIDE target G7), recombinant biotinylated complex (human, enzymatically biotinylated (BirA)). The assay is described as follows: phage panning, scFv ELISA. (In general: ELISA stands for enzyme-linked immunosorbent assay.)
Method: Phage library screening was carried out according to the overall screening design described above. Three to four rounds of bead-based panning were performed to identify scFv binders to each peptide-HLA complex. For each round of panning, an aliquot of starting phage was set aside for input titering and the remaining phage was depleted three times against Dynabead M-280 streptavidin beads (Life Technologies) followed by a depletion against Streptavidin beads pre-bound with 100 μmoles of pooled negative peptide-HLA complexes. For the first round of panning, 100 μmoles of peptide-HLA complex bound to streptavidin beads was incubated with depleted phage for 2 hours at room temperature with rotation. Three five-minute washes with 0.5% BSA in 1×PBST (PBS+0.05% Tween-20) followed by three five-minute washes with 0.5% BSA in 1×PBS were utilized to remove any unbound phage to the peptide-HLA complex bound beads. To elute the bound phage from the washed beads, 1 ml 0.1M TEA was added and incubated for 10 minutes at room temperature with rotation. The eluted phage was collected from the beads and neutralized with 0.5 ml 1M Tris-HCl pH 7.5. The neutralized phage was then used to infect log growth TG-1 cells (OD₆₀₀=0.5) and after an hour of infection at 37° C., cells were plated onto 2YT media with 100 μg/ml carbenicillin and 2% glucose (2YTCG) agar plates for output titer and bacterial growth for subsequent panning rounds.
96-well and/or 384-well streptavidin coated plates (Pierce) were coated with 2 μg/ml peptide-HLA complex in HLA buffer and incubated overnight at 4° C. Plates were washed three times between each step with PBST (PBS+0.05%). The antigen coated plates were blocked with 3% BSA in PBS (blocking buffer) for 1 hour at room temperature. After washing, scFv PPEs were added to the plates and incubated at room temperature for 1 hour. Following washing, mouse anti-v5 antibody (Invitrogen) in blocking buffer was added to detect scFv and incubated at room temperature for 1 hour. After washing, HRP-goat anti-mouse antibody (Jackson ImmunoResearch) was added and incubated at room temperature for 1 hour.
The target of assay [2] is T1, HLA-A*02:01_… (HLA-PEPTIDE target G7), …. The assay is described as follows: BLI, pHLA on sensor, Fab titrated, 1:1 model. Background: In BLI a coated tip is dipped into the sample, and binding shifts an interference pattern.
For assay [3], the target named is HLA-A*02:01_… (HLA-PEPTIDE target G8), recombinant complex (human, enzymatically biotinylated (BirA) for screening and functional assays). The assay is described as follows: BLI, pHLA on sensor, Fab titrated, 1:1 model.
Method: (§1) Binding affinity was assessed by bio-layer interferometry (BLI) using an Octet Qke (ForteBio). Briefly, biotinylated pHLA complexes in kinetics buffer were loaded onto streptavidin sensors for 300 seconds, at concentrations which gave the optimal nm shift response (approximately 0.6 nm) for each Fab at the highest concentration used. The ligand-loaded tips were subsequently equilibrated in the kinetics buffer for 120 seconds. The ligand-loaded biosensors were then dipped for 200 seconds in the Fab solution titrated into 2-fold dilutions. […] The dissociation step in the kinetics buffer was measured for 200 seconds. Data were analyzed using the ForteBio data analysis software using a 1:1 binding model.
Assay [4] concerns the target T2, HLA-B*35:01_… (HLA-PEPTIDE target G5), recombinant biotinylated complex (human, enzymatically biotinylated (BirA)).
T2 construct: also called G5-pHLA
Kind of assay: scFv PPE ELISA.

Assay [5] deals with HLA-A*01:01_… (HLA-PEPTIDE target G10), recombinant biotinylated complex (human, enzymatically biotinylated (BirA)). The assay is described as follows: BLI, pHLA on sensor, Fab titrated, 1:1 model.
Method: as §1
The target of assay [6] is T3, HLA-A*01:01_… (HLA-PEPTIDE target G2), recombinant biotinylated complex (human, enzymatically biotinylated (BirA)).
T3 construct: also called G2-pHLA
The assay is described as follows: BLI (ForteBio Octet HTX), biotinylated G2-pHLA captured on streptavidin SAX biosensor, bispecific in solution, 1:1 Fit.
From the text: The biosensors were then dipped in assay buffer for a baseline. […] The biosensors were finally dipped into wells containing assay buffer to measure the dissociation rate for another 50 seconds. Referencing was completed by having a biosensor with no immobilized ligand dipped into analyte. Kinetic data was processed with Octet™ software using a 1:1 kinetic model with errors within 10%, X² below 3, and R² above 0.9.

The target in assay [7] is T3, HLA-A*01:01_… (HLA-PEPTIDE target G2), …. Kind of assay: BLI (ForteBio Octet HTX), biotinylated G2-pHLA captured on streptavidin SAX biosensor, bispecific in solution, 1:2 Fit.

B1: G7(1C06) scFv (scFv, V domains shown)
VH: QVQLVQSGAEVKKPGASVKVSCKASGGTFSNYGISWVRQAPGQGLEWMGIINPGGSTSYAQKFQGRVTMTRDTSTSTVYMELSSLRSEDTAVYYCARDGYDFWSGYTSDDYWGQGTLVTVSS
VL: EIVMTQSPATLSVSPGERATLSCRASQSVSSSNLAWYQQKPGQAPRLLIYGASTRATGIPARFSGSGSGTEFTLTISSLQSEDFAVYYCHHYGRSHTFGQGTKVEIK
On to B1, for which the binding result in assay [1] is recorded as “binds”.

B2: G7(2C02) Fab (Fab, V domains shown)
VH: QVQLVQSGAEVKKPGASMKVSCKASGYTFTTDGISWVRQAPGQGLEWMGRIYPHSGYTEYAKKFKGRVTMTRDTSTSTVYMELSSLRSEDTAVYYCARQDGGAFAFDIWGQGTMVTVSS
VL: DIQMTQSPSSLSASVGDRVTITCQASQDIFKYLNWYQQKPGKAPKLLIYAASTLQSGVPSRFSGSGSGTDFTLTISSLQPEDFATYYCQQSYSTPPTFGQGTRLEIK
notes: Fab
Turning to B2, in assay [2], the Kd worked out at 531 nM, the koff was 0.0543 s⁻¹ and the kon was 104000 M⁻¹ s⁻¹.

B3: G8(1C11) Fab (Fab, V domains shown)
VH: QVQLVQSGAEVKKPGASVKVSCKASGGTLSSYPINWVRQAPGQGLEWMGWISTYSGHADYAQKLQGRVTMTRDTSTSTVYMELSSLRSEDTAVYYCARSYDYGDYLNFDYWGQGTLVTVSS
VL: DIQMTQSPSSLSASVGDRVTITCQASQDISNYLNWYQQKPGKAPKLLIYAASSLQSGVPSRFSGSGSGTDFTLTISSLQPEDFATYYCQQSYSIPPTFGGGTKVDIK
notes: Fab; also called G8-P1C11
As for B3, in assay [3], the Kd stood at 178 nM, the koff is 0.0338 s⁻¹ and the kon was 190000 M⁻¹ s⁻¹.

B4: G7(1B04) scFv (scFv, V domains shown)
VH: QVQLVQSGAEVKKPGASVKVSCKASGYTFSNYYIHWVRQAPGQGLEWMGWLNPNSGNTGYAQRFQGRVTMTRDTSTSTVYMELSSLRSEDTAVYYCARDLMTTVVTPGDYGMDVWGQGTTVTVSS
VL: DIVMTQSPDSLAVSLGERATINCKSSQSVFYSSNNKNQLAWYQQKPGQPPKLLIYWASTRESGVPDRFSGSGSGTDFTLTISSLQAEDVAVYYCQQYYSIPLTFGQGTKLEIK
Consider B4, for which, in assay [1], the binding result was “binds”.

B5: G5(3G05) scFv (scFv, V domains shown)
VH: QVQLVQSGAEVKKPGASVKVSCKASGYTFTNYYMHWVRQAPGQGLEWMGIINPSGGSTSYAQKFQGRVTMTRDTSTSTVYMELSSLRSEDTAVYYCARSWFGGFNYHYYGMDVWGQGTTVTVSS
VL: DIQMTQSPSSLSASVGDRVTITCQASEDISNHLNWYQQKPGKAPKLLIYDALSLQSGVPSRFSGSGSGTDFTLTISSLQPEDFATYYCQQANSFPFTFGPGTKVDIK
Consider B5, for which the “fold selective binding to target pHLA over minipool of negative control pHLAs” value in assay [4] is not below 3 fold.

B6: G7(1A03) Fab (Fab, V domains shown)
VH: QVQLVQSGAEVKKPGASVKVSCKASGYTFTSQYMHWVRQAPGQGLEWMGWISPNNGDTNYAQKFQGRVTMTRDTSTSTVYMELSSLRSEDTAVYYCARELGYYYGMDVWGQGTTVTVSS
VL: DIQMTQSPSSLSASVGDRVTITCRASQSISTWLAWYQQKPGKAPKLLIYYASSLQSGVPSRFSGSGSGTDFTLTISSLQPEDFATYYCQQSYSFPYTFGQGTKVEIK
notes: Fab
For B6, in assay [2], the Kd is 532 nM, the koff turned out to be 0.0994 s⁻¹ and the kon was determined as 197000 M⁻¹ s⁻¹.

B7: G10(1B07) Fab (Fab, V domains shown)
VH: QVQLVQSGAEVKKPGASVKVSCKASGYTFTSYYMHWVRQAPGQGLEWMGIIHPGGGTTSYAQKFQGRVTMTRDTSTSTVYMELSSLRSEDTAVYYCARDKVYGDGFDPWGQGTLVTVSS
VL: DIQMTQSPSSLSASVGDRVTITCRASQSISRWLAWYQQKPGKAPKLLIFDASRLQSGVPSRFSGSGSGTDFTLTISSLQPEDFATYYCQQAEAFPYTFGQGTKVEIK
notes: Fab
On to B7, for which, in assay [5], the Kd stood at 37.5 nM, the koff was 0.00615 s⁻¹ and the kon was found to be 165000 M⁻¹ s⁻¹.

B8: G7(1G10) scFv (scFv, V domains shown)
VH: EVQLLESGGGLVQPGGSLRLSCAASGFTFSSYAMHWVRQAPGKGLEWVSGISGSGGSTYYADSVKGRFTISRDNSKNTLYLQMNSLRAEDTAVYYCASDYGDYRGQGTLVTVSS
VL: DIQMTQSPSSLSASVGDRVTITCRASQDIRNDLGWYQQKPGKAPKLLIYAASSLQSGVPSRFSGSGSGTDFTLTISSLQPEDFATYYCQQANAFPPTFGQGTKVEIK
Turning to B8, in assay [1], the binding result is “binds”.

B9: G8(2E04) Fab (Fab, V domains shown)
VH: QVQLVQSGAEVKKPGSSVKVSCKASGGTFSSYGVSWVRQAPGQGLEWMGWISPYSGNTDYAQKFQGRVTITADESTSTAYMELSSLRSEDTAVYYCARGLYYMDVWGKGTTVTVSS
VL: DIQMTQSPSSLSASVGDRVTITCRASQSISSWLAWYQQKPGKAPKLLIYDASNLETGVPSRFSGSGSGTDFTLTISSLQPEDFATYYCQQSYSTPLTFGGGTKLEIK
notes: Fab
Regarding B9, in assay [3], the Kd came to 286 nM, the koff amounted to 0.0789 s⁻¹ and the kon was 545000 M⁻¹ s⁻¹.

B10: G8(2C10) Fab (Fab, V domains shown)
VH: QVQLVQSGAEVKKPGASVKVSCKASGYTFTSYYMHWVRQAPGQGLEWMGWINPYSGGTNYAQKFQGRVTMTRDTSTSTVYMELSSLRSEDTAVYYCAKGGIYYGSGSYPSWGQGTLVTVSS
VL: DIQMTQSPSSLSASVGDRVTITCRASQDVSTWLAWYQQKPGKAPKLLIYAASSLQSGVPSRFSGSGSGTDFTLTISSLQPEDFATYYCQQSHSTPQTFGQGTKVEIK
notes: Fab
Turning to B10, in assay [3], the Kd stood at 17.7 nM, the koff came out at 0.0013 s⁻¹ and the kon was 75000 M⁻¹ s⁻¹.

B11: G5(4B01) scFv (scFv, V domains shown)
VH: QVQLVQSGAEVKKPGSSVKVSCKASGGTFSSYAISWVRQAPGQGLEWMGGIIPIVGTANYAQKFQGRVTITADESTSTAYMELSSLRSEDTAVYYCARGGSYYYYGMDVWGQGTTVTVSS
VL: not shown
As for B11, the “fold selective binding to target pHLA over minipool of negative control pHLAs” value in assay [4] was not below 3 fold.

B12: 4-G2(1H11)-10AAL hOKT3a (bispecific antibody)
chain: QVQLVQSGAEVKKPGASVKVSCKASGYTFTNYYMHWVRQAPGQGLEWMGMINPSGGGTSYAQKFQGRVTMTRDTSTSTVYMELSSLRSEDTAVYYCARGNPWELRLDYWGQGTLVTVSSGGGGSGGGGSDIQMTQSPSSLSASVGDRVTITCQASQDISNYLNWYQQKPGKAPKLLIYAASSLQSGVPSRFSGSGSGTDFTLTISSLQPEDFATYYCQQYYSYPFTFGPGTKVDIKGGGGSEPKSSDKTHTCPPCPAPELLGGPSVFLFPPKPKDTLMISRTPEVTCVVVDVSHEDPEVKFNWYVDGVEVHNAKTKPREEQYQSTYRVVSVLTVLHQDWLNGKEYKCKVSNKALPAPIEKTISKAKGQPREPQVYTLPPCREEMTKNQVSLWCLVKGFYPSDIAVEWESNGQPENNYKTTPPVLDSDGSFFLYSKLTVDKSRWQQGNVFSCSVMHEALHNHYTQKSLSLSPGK
heavy: QVQLVQSGAEVKKPGASVKVSCKASGYTFTNYYMHWVRQAPGQGLEWMGMINPSGGGTSYAQKFQGRVTMTRDTSTSTVYMELSSLRSEDTAVYYCARGNPWELRLDYWGQGTLVTVSSGGGGSGGGGSDIQMTQSPSSLSASVGDRVTITCQASQDISNYLNWYQQKPGKAPKLLIYAASSLQSGVPSRFSGSGSGTDFTLTISSLQPEDFATYYCQQYYSYPFTFGPGTKVDIKGGGGSGGGGSQVQLVQSGAEVKKPGASVKVSCKASGYTFTRYTMHWVRQAPGQGLEWMGYINPSRGYTNYNQKFKDRVTLTTDKSSSTAYMELSSLRSEDTAVYYCARYYDDHYSLDYWGQGTLVTVSSASTKGPSVFPLAPSSKSTSGGTAALGCLVKDYFPEPVTVSWNSGALTSGVHTFPAVLQSSGLYSLSSVVTVPSSSLGTQTYICNVNHKPSNTKVDKRVEPKSCDKTHTCPPCPAPELLGGPSVFLFPPKPKDTLMISRTPEVTCVVVDVSHEDPEVKFNWYVDGVEVHNAKTKPREEQYQSTYRVVSVLTVLHQDWLNGKEYKCKVSNKALPAPIEKTISKAKGQPREPQVCTLPPSREEMTKNQVSLSCAVKGFYPSDIAVEWESNGQPENNYKTTPPVLDSDGSFFLVSKLTVDKSRWQQGNVFSCSVMHEALHNRFTQKSLSLSPGK
light: DIQMTQSPSSLSASVGDRVTITCSASSSVSYMNWYQQKPGKAPKRLIYDTSKLASGVPSRFSGSGSGTDFTLTISSLQPEDFATYYCQQWSSNPFTFGQGTKLEIKRTVAAPSVFIFPPSDEQLKSGTASVVCLLNNFYPREAKVQWKVDNALQSGNSQESVTEQDSKDSTYSLSSTLTLSKADYEKHKVYACEVTHQGLSSPVTKSFNRGEC
notes: format 4 diabody; also called G2(1H11)-hOKT3a Format 4 with shortened linkers; DAB
For the molecule B12, in assay [6], the Kd turned out to be 6.35 nM, the koff is 0.00608 s⁻¹ and the kon turned out to be 958000 M⁻¹ s⁻¹. Moreover, in assay [7], the Kd came to 301 nM, the koff was found to be 0.0746 s⁻¹ and the kon came out at 248000 M⁻¹ s⁻¹.

B13: G7(1F08) scFv (scFv, V domains shown)
VH: EVQLLQSGGGLVQPGGSLRLSCAASGFTFSSSWMHWVRQAPGKGLEWVSFISTSSGYIYYADSVKGRFTISRDNSKNTLYLQMNSLRAEDTAVYYCAKDLATVGEPYYYYGMDVWGQGTTVTVSS
VL: DIQMTQSPSSLSASVGDRVTITCQASQDISNYLNWYQQKPGKAPKLLIYSASNLRSGVPSRFSGSGSGTDFTLTISSLQPEDFATYYCQQGNTFPLTFGQGTKVEIK
Regarding B13, in assay [1], the binding result is given as “binds”.

B14: G7(2E09) Fab (Fab, V domains shown)
VH: QVQLVQSGAEVKKPGSSVKVSCKASRYTFTSYDINWVRQAPGQGLEWMGRIIPMLNIANYAPKFQGRVTITADESTSTAYMELSSLRSEDTAVYYCARALIFGVPLLPYGMDVWGQGTTVTVSS
VL: not shown
notes: Fab
As to B14, in assay [2], the Kd turned out to be 11.8 nM, the koff is 0.00212 s⁻¹ and the kon amounted to 185000 M⁻¹ s⁻¹.

B15: G10(4E07) Fab (Fab, V domains shown)
VH: QVQLVQSGAEVKKPGSSVKVSCKASGYTFTGYYMHWVRQAPGQGLEWMGRISPSDGSTTYAPKFQGRVTITADESTSTAYMELSSLRSEDTAVYYCARDMGDAFDIWGQGTTVTVSS
VL: not shown
notes: Fab
As for B15, in assay [5], the Kd stood at 428 nM, the koff is 0.111 s⁻¹ and the kon was 477000 M⁻¹ s⁻¹.

B16: G7(3A09) scFv (scFv, V domains shown)
VH: QVQLVQSGAEVKKPGSSVKVSCKASGDTFNTYALSWVRQAPGQGLEWMGWMNPNSGNAGYAQKFQGRVTITADESTSTAYMELSSLRSEDTAVYYCARLWFGELHYYYYYGMDVWGQGTMVTVSS
VL: not shown
Turning to B16, in assay [1], the binding result is on record as “binds”.

The term Kd denotes the concentration at which binding is half-saturated. Broadly, the koff is the first-order rate constant of dissociation. The kon is the rate constant with which the complex forms.

Values taken from patent US20240059797A1 (GRITSTONE BIO, published 2024).
